US20190062383A1 (Janssen / Centocor, published 2019)

Molecular target: KV1N2 (OsK1-Fc fusion) (Orthochirus scrobiculosus)
Assay: FACS competition with agitoxin2-cys-TAMRA

B1: hKv1.3 E3 loop/hKv1.5 chimera (receptor)
chain: MEIALVPLENGGAMTVRGGDEARAGCGQATGGELQCPPTAGLSDGPKEPAPKGRGAQRDADSGVRPLPPLPDPGVRPLPPLPEELPRPRRPPPEDEEEEGDPGLGTVEDQALGTASLHHQRVHINISGLRFETQLGTLAQFPNTLLGDPAKRLRYFDPLRNEYFFDRNRPSFDGILYYYQSGGRLRRPVNVSLDVFADEIRFYQLGDEAMERFREDEGFIKEEEKPLPRNEFQRQVWLIFEYPESSGSARAIAIVSVLVILISIITFCLETLPEFRDERELLRHPPAPHQPPAPAPGANGSGVMAPPSGPTVAPLLPRTLADPFFIVETTCVIWFTFELLVRFFACPSKAGFSRNIMNIIDVVAIFPYFITLGTELAEQQPGGGGGGQNGQQAMSLAILRVIRLVRVFRIFKLSRHSKGLQILGKTLQASMRELGLLIFFLFIGVILFSSAVYFAEADDPTSGFSSIPDAFWWAVVTMTTVGYGDMHPVTIGGKIVGSLCAIAGVLTIALPVPVIVSNFNYFYHRETDHEEPAVLKEEQGTQSQGPGLDRGVQRKVSGSRGSFCKAGGTLENADSARRGSCPLEKCNVKAKSNVDLRRSLYALCLDTSRETDL
B1: binds.
